Assay results from paper PMC5327383, “Pneumococcal galactose catabolism is controlled by multiple regulators acting on pyruvate formate lyase” (Scientific Reports, 2017).
Values joined by “and” are separate entries in the source; they are usually repeats but may differ in a detail not shown here. Identical values can stand only once.

What was measured:
Test in all cases: EMSA
[1] = target: CcpA (Streptococcus pneumoniae D39) (UniProt A0A0H2ZQ65); conditions: 5X FY buffer: 20 mM Tris-HCl pH 7.5, 30 mM KCl, 1 mM DTT, 1 mM EDTA, 10% glycerol; room temperature 20 min, 20 ul, ~30 ng DNA, 0.1-0.5 uM protein; 8%
[2] = target: T1, GlnR (Streptococcus pneumoniae D39) (UniProt A0A0H2ZRB1); conditions: 5X FY buffer: 20 mM Tris-HCl pH 7.5, 30 mM KCl, 1 mM DTT, 1 mM EDTA, 10% glycerol; room temperature 20 min, 20 ul, ~30 ng DNA, 0.1-0.5 uM protein; 8%
T1 sequence: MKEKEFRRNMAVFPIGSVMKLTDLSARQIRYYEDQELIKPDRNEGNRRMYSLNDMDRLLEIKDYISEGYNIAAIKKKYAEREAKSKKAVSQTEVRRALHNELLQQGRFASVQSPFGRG

[3] = target: T2, GntR (Streptococcus pneumoniae D39) (UniProt A0A0H2ZQS8); conditions: 5X FY buffer: 20 mM Tris-HCl pH 7.5, 30 mM KCl, 1 mM DTT, 1 mM EDTA, 10% glycerol; room temperature 20 min, 20 ul, ~30 ng DNA, 0.1-0.5 uM protein; 8%
T2 sequence: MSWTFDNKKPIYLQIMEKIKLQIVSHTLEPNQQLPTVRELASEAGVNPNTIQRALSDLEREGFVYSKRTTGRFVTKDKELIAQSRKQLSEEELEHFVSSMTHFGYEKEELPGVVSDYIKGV

[4] = system: GlnR (Streptococcus pneumoniae D39); conditions: 5X FY buffer: 20 mM Tris-HCl pH 7.5, 30 mM KCl, 1 mM DTT, 1 mM EDTA, 10% glycerol, room temperature 20 min, 20 ul, ~30 ng DNA, 0.1-0.5 uM protein, 8%
[5] = system: CcpA (Streptococcus pneumoniae D39); conditions: 5X FY buffer: 20 mM Tris-HCl pH 7.5, 30 mM KCl, 1 mM DTT, 1 mM EDTA, 10% glycerol, room temperature 20 min, 20 ul, ~30 ng DNA, 0.1-0.5 uM protein, 8%

Q: For “AAGTGCAAAATCCCTATTTTTACACTTTCTTTTCTAAAACAGTCTATATTTTATTTCAAACTGTATTATATTTTTGAAAAAAATAAAGTCCTTTT (double strand) [PpflB(cre1-)]”, which binding [1] is on record?
A: no binding

Q: What about the binding [2] of the same substance?
A: no binding

Q: For “GTTACCTTCCTTGAAAACGTTTTATAGTTTTATTATATCACGACTTGAAGGAAAAACAAGATTTTTGCCTATTTTTTAGAAAGCAATCTGTTTTTC (double strand) [PpflA]”, which binding [3] is on record?
A: no binding

Q: What about the binding [1] of the same substance?
A: binds

Q: And the binding [2]?
A: binds

Q: Which results are given for “ATGACAGAAGAAATCAAAAATCTGCAGGCACAGGATTATGATGCCAGTCAAATTCAAGTTTTAGAGGGCTTAGAGGCTGTTCGTATGCGTCCAGG (double strand) [gyrB]”?
A: binding [1]: no binding; binding [2]: no binding

Q: What does the source list for “CAGTTTGAAATAAAATATAGACTGTTTTAGAAAAGAAAGTGTAAAAATAGGGATTTTGCACTTGTTGAAATCGGTTACTTTATGGTATACTTGTC (double strand) [PpflB]”?
A: binding [3]: binds; Kd [1]: 1270 nM and 350 nM; Kd [2]: 310 nM

Q: With “TAATCTGATGATAGATTGAAAATGAAATTGAAAAACAGATTGCTTTCTAAAAAATAGGCAAAAATCTTGTTTTTCCTTCAAGTCGTGATATAATAA (double strand) [PpflA(cre1-)]” as the substance, how does the binding [1] read?
A: binds more weakly

Q: What about the binding [2] of the same substance?
A: binds more weakly

Q: PpflB was tested. Which Kd ([4]; 10 mM sodium formate) did it give?
A: 790 nM

Q: What about the Kd ([4]; no formate) of the same substance?
A: 310 nM

Q: And the Kd ([5]; 10 mM sodium formate)?
A: 350 nM

Q: What about the Kd ([5]; no formate) of the same substance?
A: 1270 nM

Q: Which results are given for “GTGAAAATTTCGTTTTCATATTTCTACTTATTCCATTCTATCACTAATTGTAAACACTTTCAAGTGTTTTTTGAAGATTGATTGAAAAAATTTCA (double strand) [PccpA]”?
A: binding [3]: no binding; binding [1]: binds; binding [2]: binds
